The target of the assay is T1, CD40-Fc (immobilized recombinant human CD40) (human, UniProt P25942 21-193, limits assumed).
T1 construct: Coated on the ELISA plate
Kind of assay: ELISA, CD40-Fc coated, HeLa supernatant, detection with non-competitive anti-CD40L. For orientation: An ELISA detects its analyte on a solid surface through an enzyme-linked reagent.

T1 sequence (P25942 21-193 limits assumed): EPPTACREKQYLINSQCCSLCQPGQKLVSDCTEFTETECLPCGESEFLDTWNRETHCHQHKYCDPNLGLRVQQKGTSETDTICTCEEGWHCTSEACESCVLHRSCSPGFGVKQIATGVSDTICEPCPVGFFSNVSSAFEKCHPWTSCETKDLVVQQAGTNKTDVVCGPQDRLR

B1: construct encoded by pTG19968: [N-terminus]-[collagen domain(12)]-[coiled-coil neck domain]-[CD40L] (ligand)
chain: AEMKTYSHRTMPSACTLVMCSSVESGQAGPVGPKGDNGSVGEPGPKGDTGPSGPPGPPGVPDVASLRQQVEALQGQVQHLQAAFSQYKKVENPQIAAHVISEASSKTTSVLQWAEKGYYTMSNNLVTLENGKQLTVKRQGLYYIYAQVTFCSNREASSQAPFIASLCLKSPGRFERILLRAANTHSSAKPCGQQSIHLGGVFELQPGASVFVNVTDPSQVSHGTGFTSFGLLKL
On to B1, for which the binding result was “binds”.

B2: construct encoded by pTG20042: [N-terminus]-[collagen domain(30)]-[coiled-coil neck domain]-[CD40L] (ligand)
chain: AEMKTYSHRTMPSACTLVMCSSVESGLPGRDGRDGREGPRGEKGDPGLPGAAGQAGMPGQAGPVGPKGDNGSVGEPGPKGDTGPSGPPGPPGVPGPAGREGPLGKQGNIGPQGKPDVASLRQQVEALQGQVQHLQAAFSQYKKVENPQIAAHVISEASSKTTSVLQWAEKGYYTMSNNLVTLENGKQLTVKRQGLYYIYAQVTFCSNREASSQAPFIASLCLKSPGRFERILLRAANTHSSAKPCGQQSIHLGGVFELQPGASVFVNVTDPSQVSHGTGFTSFGLLKL
notes: Tested as clarified HeLa supernatant
B2: the binding result is “binds”.

B3: construct encoded by pTG19967: [N-terminus]-[coiled-coil neck domain]-[linker]-[CD40L] (ligand)
chain: AEMKTYSHRTMPSACTLVMCSSVESDVASLRQQVEALQGQVQHLQAAFSQYKKVEGGGSGGGSGGGSNPQIAAHVISEASSKTTSVLQWAEKGYYTMSNNLVTLENGKQLTVKRQGLYYIYAQVTFCSNREASSQAPFIASLCLKSPGRFERILLRAANTHSSAKPCGQQSIHLGGVFELQPGASVFVNVTDPSQVSHGTGFTSFGLLKL
For B3, the binding result is “binds”.

B4: construct encoded by pTG20041: [N-terminus]-[collagen domain(12bis)]-[coiled-coil neck domain]-[CD40L] (ligand)
chain: AEMKTYSHRTMPSACTLVMCSSVESGPLGKQGNIGPQGKPGPKGEAGPKGEVGAPGMQGSADVASLRQQVEALQGQVQHLQAAFSQYKKVENPQIAAHVISEASSKTTSVLQWAEKGYYTMSNNLVTLENGKQLTVKRQGLYYIYAQVTFCSNREASSQAPFIASLCLKSPGRFERILLRAANTHSSAKPCGQQSIHLGGVFELQPGASVFVNVTDPSQVSHGTGFTSFGLLKL
notes: as for B2
For the molecule B4, the binding result was “binds”.

B5: construct encoded by pTG19969: [N-terminus]-[collagen domain(12)]-[coiled-coil neck domain]-[linker]-[CD40L] (ligand)
chain: AEMKTYSHRTMPSACTLVMCSSVESGQAGPVGPKGDNGSVGEPGPKGDTGPSGPPGPPGVPDVASLRQQVEALQGQVQHLQAAFSQYKKVEGGGSGGGSGGGSNPQIAAHVISEASSKTTSVLQWAEKGYYTMSNNLVTLENGKQLTVKRQGLYYIYAQVTFCSNREASSQAPFIASLCLKSPGRFERILLRAANTHSSAKPCGQQSIHLGGVFELQPGASVFVNVTDPSQVSHGTGFTSFGLLKL
With B5, the binding result was “binds”.

B6: construct encoded by pTG19966: [N-terminus]-[coiled-coil neck domain]-[CD40L] (ligand)
chain: AEMKTYSHRTMPSACTLVMCSSVESDVASLRQQVEALQGQVQHLQAAFSQYKKVENPQIAAHVISEASSKTTSVLQWAEKGYYTMSNNLVTLENGKQLTVKRQGLYYIYAQVTFCSNREASSQAPFIASLCLKSPGRFERILLRAANTHSSAKPCGQQSIHLGGVFELQPGASVFVNVTDPSQVSHGTGFTSFGLLKL
notes: Tested as clarified HeLa supernatant, oligomeric state mixed; It was detected by anti-FLAG immunoblot
B6: the binding result is “binds”.

B7: construct encoded by pTG19325: fusion protein SPD (M1-G257, P35247 numbering)-CD40L (H47 to L261 from P29965 numbering) (ligand)
chain: AEMKTYSHRTMPSACTLVMCSSVESGLPGRDGRDGREGPRGEKGDPGLPGAAGQAGMPGQAGPVGPKGDNGSVGEPGPKGDTGPSGPPGPPGVPGPAGREGPLGKQGNIGPQGKPGPKGEAGPKGEVGAPGMQGSAGARGLAGPKGERGVPGERGVPGNTGAAGSAGAMGPQGSPGARGPPGLKGDKGIPGDKGAKGESGLPDVASLRQQVEALQGQVQHLQAAFSQYKKVELFPNGHRRLDKIEDERNLHEDFVFMKTIQRCNTGERSLSLLNCEEIKSQFEGFVKDIMLNKEETKKENSFEMQKGDQNPQIAAHVISEASSKTTSVLQWAEKGYYTMSNNLVTLENGKQLTVKRQGLYYIYAQVTFCSNREASSQAPFIASLCLKSPGRFERILLRAANTHSSAKPCGQQSIHLGGVFELQPGASVFVNVTDPSQVSHGTGFTSFGLLKL
notes: Tested as clarified, unpurified supernatant of infected/transfected HeLa cells; concentration unknown; The construct begins at M1 of SPD, so the entry may include the native signal peptide; The form range is that of the CD40L part
As to B7, the binding result is recorded as “binds”.

B8: construct encoded by pTG20038: [N-terminus]-[collagen domain(6 + N-Gly)]-[coiled-coil neck domain]-[CD40L] (ligand)
chain: AEMKTYSHRTMPSACTLVMCSSVESGQAGPVGPKGDNGSVGEPDVASLRQQVEALQGQVQHLQAAFSQYKKVENPQIAAHVISEASSKTTSVLQWAEKGYYTMSNNLVTLENGKQLTVKRQGLYYIYAQVTFCSNREASSQAPFIASLCLKSPGRFERILLRAANTHSSAKPCGQQSIHLGGVFELQPGASVFVNVTDPSQVSHGTGFTSFGLLKL
notes: as for B2
Regarding B8, the binding result was “binds”.

B9: construct encoded by pTG20039: [N-terminus]-[collagen domain(6 - N-Gly)]-[coiled-coil neck domain]-[CD40L] (ligand)
chain: AEMKTYSHRTMPSACTLVMCSSVESGPKGDTGPSGPPGPPGVPDVASLRQQVEALQGQVQHLQAAFSQYKKVENPQIAAHVISEASSKTTSVLQWAEKGYYTMSNNLVTLENGKQLTVKRQGLYYIYAQVTFCSNREASSQAPFIASLCLKSPGRFERILLRAANTHSSAKPCGQQSIHLGGVFELQPGASVFVNVTDPSQVSHGTGFTSFGLLKL
notes: as for B2
Consider B9, for which the binding result is “binds”.
